Laboratory results published in PMC5433940 (Chembiochem : a European journal of chemical biology, 2016).
Ends that are not written are not given here.

T1: p32 protein (Homo sapiens, UniProt Q07021)
T1 sequence (Q07021 74-282): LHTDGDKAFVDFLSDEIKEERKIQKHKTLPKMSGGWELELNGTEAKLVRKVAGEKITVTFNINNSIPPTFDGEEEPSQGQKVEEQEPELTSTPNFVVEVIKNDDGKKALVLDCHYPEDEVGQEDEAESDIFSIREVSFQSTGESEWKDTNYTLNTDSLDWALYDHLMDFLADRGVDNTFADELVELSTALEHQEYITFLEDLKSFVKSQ

T2: recombinant 6x-His-tagged p32 protein (p32/gC1qR) (UniProt Q07021 74-282)
T2 sequence (looked up): T1 sequence (Q07021 74-282)


Legend:
p32 protein = target: T1, p32 protein; test: Binding of peptide-displaying T7 phage clones to immobilized p32 protein; conditions: peptide displayed on T7 phage; compared to LyP-1 phage
[1] = target: recombinant 6x-His-tagged p32 protein (p32/gC1qR) (UniProt Q07021); test: AUC
[2] = target: T2, recombinant 6x-His-tagged p32 protein …; test: fluorescence polarisation

| Molecule | phage binding to p32 (p32 protein) | other results |
| --- | --- | --- |
| CKRGNRSMC | greatly improved binding to p32 compared to LyP-1 phage |  |
| CTRGSRSKC | greatly improved binding to p32 compared to LyP-1 phage |  |
| recombinant 6x-His-tagged p32 protein (p32/gC1qR) (from UniProt Q07021 74-282) (natural protein; other documents disagree on this pair) |  | stoichiometry N [1]: 3 |
| CGNKRTRGC (cysteine pairing not given here; also: FAM label, position not given here) [FAM-labeled LyP-1 peptide (CGNKRTRGC)] |  | Kd [2]: > 23 µM |
